Experimental data as given in the RNAGym collection of RNA variant scans (doi:10.1093/molbev/msab373).

B1: Azoarcus group I ribozyme (parent)
chain: GUGCCUUGCGCCGGGAAACCACGCAAGGGAUGGUGUCAAAUUCGGCGAAACCUAAGCGCCCGCCCGGGCGUAUGGCAACGCCGAGCCAAGCUUCGGCGCCUGCGCCGAUGAAGGUGUAGAGACUAGACGGCACCCACCUAAGGCAAACGCUAUGGUGAAGGCAUAGUCCAGGGAGUGGCGAAAGUCACACAAACCGG

Variants of: B1
Assay: reverse-splicing fitness (ratio to wild type); higher = more active; in vitro selection; Mg2+ level not given
Summary of the method: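 An in vitro group I ribozyme library with randomized positions was T7-transcribed and gel-purified. In triplicate, 10 pmol RNA in EPPS pH 7.5 was reacted with 50 pmoles of a 30-nt RNA substrate for 1 h at 37 °C across several added MgCl2 levels (1–48 mM), then stopped with EDTA. Products were reverse transcribed from a substrate-complementary primer, PCR-amplified and sequenced (HiSeq 4000). Fitness is a variant's read proportion after selection over that before, normalised to wild type.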

| Variant | reverse-splicing fitness |
| --- | --- |
| C82G A111C A120G A145G U176G | 0.00675 |
| C82G A111C A120G A145G U176C | 0.0204 |
| C82G A111C A120C A145G C150G | 0.0102 |
| C82G A111C A120C A145G C150U | 0.0408 |
| C82G A111C A120C A145U C150G C169G U176C | 0.00759 |
| C82G A111C A120C A145U C150G C169G U176A | 0.0088 |
| C82G A111C A120C A145U C150G C169G U176G | 0.00673 |
| C82G A111C A120G A145G C150U U176G | 0.00692 |
| C82G A111C A120G A145G C150U U176A | 0.0105 |
| C82G A111C A120G A145G C150U U176C | 0.0183 |
| C82G A111C A120G | 0.0185 |
| C82G A111C A120C A145G C169U U176C | 0.0158 |
| C82G A111C A120C A145G C169U U176G | 0.00614 |
| C82G A111C A120C A145G C169U U176A | 0.0139 |
| C82G A111C A120C A145U C169G U176A | 0.0141 |
| C82G A111C A120C A145U C169G U176C | 0.0177 |
| C82G A111C A120C A145U C169G U176G | 0.00713 |
| C82G A111C A120C C150G C169U U176A | 0.00786 |
| C82G A111C A120C C150G C169U U176G | 0.00751 |
| C82G A111C A120C C150G C169U U176C | 0.0107 |
| C82G A111C A120G A145U C150A C169A U176G | 0.00581 |

| Variant | reverse-splicing fitness |
| --- | --- |
| C82G A111C A120G A145U C150A C169A U176A | 0.0128 |
| C82G A111C A120G A145U C150A C169A U176C | 0.0105 |
| C82G A111C A120G A145G C150A C169G U176C | 0.0267 |
| C82G A111C A120G A145G C150A C169G U176G | 0.0058 |
| C82G A111C A120G A145G C150A C169G U176A | 0.0158 |
| C82G A111C A120C C150U C169G U176A | 0.0152 |
| C82G A111C A120C C150U C169G U176C | 0.0171 |
| C82G A111C A120C C150U C169G U176G | 0.0066 |
| C82G A111C A120C C150A C169A U176A | 0.0164 |
| C82G A111C A120C C150A C169A U176G | 0.00868 |
| C82G A111C A120C C150A C169A U176C | 0.019 |
| C82G A111C A120G A145C C169G U176A | 0.0233 |
| C82G A111C A120G A145C C169G U176G | 0.00429 |
| C82G A111C A120G A145C C169G U176C | 0.0171 |
| C82G A111C A120G A145G C150G C169A U176G | 0.00843 |
| C82G A111C A120G A145G C150G C169A U176A | 0.0144 |
| C82G A111C A120G A145G C150G C169A U176C | 0.0135 |
| C82G A111C A120C C169A U176A | 0.0156 |
| C82G A111C A120C C169A U176C | 0.0194 |
| C82G A111C A120C C169A U176G | 0.0072 |
| C82G A111C A120G A145U C150G | 0.00698 |

| Variant | reverse-splicing fitness |
| --- | --- |
| C82G A111C A120G A145U C150A | 0.00783 |
| C82G A111C A120G A145C C150A C169U U176C | 0.00999 |
| C82G A111C A120G A145C C150A C169U U176A | 0.0151 |
| C82G A111C A120G A145C C150A C169U U176G | 0.0047 |
| C82G A111C A120C C150U C169U U176A | 0.0158 |
| C82G A111C A120C C150U C169U U176C | 0.0142 |
| C82G A111C A120C C150U C169U U176G | 0.00857 |
| C82G A111C A120C C150U | 0.0277 |
| C82G A111C A120C C150G | 0.00951 |
| C82G A111C A120C C150A | 0.0114 |
| C82G A111C A120G A145G C150G C169G U176A | 0.0101 |
| C82G A111C A120G A145G C150G C169G U176C | 0.0123 |
| C82G A111C A120G A145G C150G C169G U176G | 0.00591 |
| C82G A111C A120G A145G C150U | 0.0132 |
| C82G A111C A120G A145G C150G | 0.00751 |
| C82G A111C A120G A145G C150A | 0.00945 |
| C82G A111C A120G A145G C150A C169A | 0.0104 |
| C82G A111C A120G A145G C150A C169U | 0.00904 |
| C82G A111C A120G A145G C150A C169G | 0.00949 |
| C82G A111C A120G A145C C150G C169U U176A | 0.00907 |
| C82G A111C A120G A145C C150G C169U U176G | 0.00513 |

| Variant | reverse-splicing fitness |
| --- | --- |
| C82G A111C A120G A145C C150G C169U U176C | 0.0124 |
| C82G A111C A120C A145G C150U C169U U176C | 0.0131 |
| C82G A111C A120C A145G C150U C169U U176G | 0.00732 |
| C82G A111C A120C A145G C150U C169U U176A | 0.0156 |
| C82G A111C A120G A145C C150A U176C | 0.011 |
| C82G A111C A120G A145C C150A U176G | 0.00463 |
| C82G A111C A120G A145C C150A U176A | 0.0121 |
| C82G A111C A120G A145U C150A U176A | 0.0121 |
| C82G A111C A120G A145U C150A U176G | 0.00582 |
| C82G A111C A120G A145U C150A U176C | 0.0172 |
| C82G A111C A120G A145G C150U C169U | 0.011 |
| C82G A111C A120G A145G C150U C169G | 0.0134 |
| C82G A111C A120G A145G C150U C169A | 0.0112 |
| C82G A111C A120G A145G C150G C169U | 0.00859 |
| C82G A111C A120G A145G C150G C169G | 0.00765 |
| C82G A111C A120G A145G C150G C169A | 0.009 |
| C82G A111C A120C A145U C150A C169G | 0.0083 |
| C82G A111C A120C A145U C150A C169U | 0.011 |
| C82G A111C A120C A145U C150A C169A | 0.00835 |
| C82G A111C A120C C150A C169U U176C | 0.0153 |
| C82G A111C A120C C150A C169U U176G | 0.0085 |
